# Laboratory results taken from the supplement of paper PMC9170038.
# How the values were obtained:
# MS2 coat protein [1] = assay: apparent KD of MS2 coat protein; higher = weaker reporter binding; settings: Eterna round: R101
# Method: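 RNA-MaP: designed FMN/MS2 RNA switches (84 nt design region) are transcribed on-chip within common flanks and titrated with SNAP-549-labelled MS2 coat protein (about 1-3000 nM) in 100 mM Tris pH 7.5, 80 mM KCl, 4 mM MgCl2, without or with 200 uM FMN. Median apparent KD per design; activation ratio = KD,OFF / KD,ON.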
# MS2 coat protein [2] = assay: apparent KD of MS2 coat protein, switch ON state; designed switch direction (-1 OFF switch, 1 ON switch): 1; higher = weaker reporter binding; settings: FMN input: 0 or 200 uM; Eterna round: R93 (includes R88 designs)
# Summary of the method: (§1)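 Apparent KD was obtained for each design as the median of normalised binding-curve fits over its clusters. RNA switches transcribed on-chip from Illumina sequencing clusters were titrated with SNAP-549-labelled MS2 coat protein (twofold steps, 0.7 or 1.5 nM to 3 µM) in 100 mM Tris-HCl pH 7.5, 80 mM KCl, 4 mM MgCl2, without or with constant ligand.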
# MS2 coat protein [3] = assay: apparent KD of MS2 coat protein, switch OFF state (with FMN for OFF switches, without FMN for ON switches); designed switch direction (-1 OFF switch, 1 ON switch): 1; higher = weaker reporter binding; settings: FMN input: 0 or 200 uM; Eterna round: R93 (includes R88 designs)
# Summary of the method: as §1
sequence,measurement,setting,value
AAUAAUUCUUAAGGAUAUCAGUGGCAAAGCCACUGAGAAGGUGAGGAUCACCCACCUACGUGACGCUGGAAACAGCGUCACGAA [#SharedSequence ExNG1 - 30] (puzzle (switch architecture): Exclusion NG 1),apparent KD of MS2 coat protein,MS2 coat protein [1]; input ligand: FMN 200 uM,23.1 nM
same,apparent KD of MS2 coat protein,MS2 coat protein [1]; input ligand: none,16.2 nM
AAAUAACUCGAAGGAUAUGACCCUCGAGGUGACUAAAAGUCACCUCGAGGGUCAGAAGGUCGAGGAUCACCCGACCUAGUGAAA [#SharedSequence SLExNG1: 8] (puzzle (switch architecture): Small Loop Exclusion NG 1),apparent KD of MS2 coat protein,MS2 coat protein [1]; input ligand: FMN 200 uM,65.9 nM
same,apparent KD of MS2 coat protein,MS2 coat protein [1]; input ligand: none,10.3 nM
AGACCUGCUCAGAAGGCGGAAACGAGGCUGGAAACAGCCUCGAAUUAAGAUCUUCGAGGAUCACCCGAGGAUAUGAGCAGGUCA [#SharedSequence - IExNG2: 14] (puzzle (switch architecture): Inverted Exclusion NG 2),apparent KD of MS2 coat protein,MS2 coat protein [1]; input ligand: FMN 200 uM,593 nM
same,apparent KD of MS2 coat protein,MS2 coat protein [1]; input ligand: none,60.7 nM
AAGUGAAAUCAGAAGGCGUGGACGAAACGUCCACGAGGAUAUGAGGAUCACCCAUGUCAGGUCAGCCUGCAAAGCAGGCUGACC [#SharedSequence - IExNG1: 6-1] (puzzle (switch architecture): Inverted Exclusion NG 1),apparent KD of MS2 coat protein,MS2 coat protein [1]; input ligand: FMN 200 uM,259 nM
same,apparent KD of MS2 coat protein,MS2 coat protein [1]; input ligand: none,66.2 nM
GGAUAGGACAGAGGAUAUACGUGCUAGAGAUACUAGCAAAAUUUCCUCACAUGAGGAUCACCCAUGUAGAAGGCUGUCCUAUCU (puzzle (switch architecture): Exclusion NG 2),apparent KD of MS2 coat protein,MS2 coat protein [1]; input ligand: FMN 200 uM,395 nM
same,apparent KD of MS2 coat protein,MS2 coat protein [1]; input ligand: none,18.6 nM
GUAAAACAUGAGGAUCACCCAUGUAGAAAUAUGGGAGGAUAUACGAAGACGAAAGUCAAAGUAGAAGGCCUAAAGU [Mat - Same State 1 - Eli mod - D111],apparent KD of MS2 coat protein,MS2 coat protein [2],26.1 nM
same,apparent KD of MS2 coat protein,MS2 coat protein [3],54.9 nM
GAUUACAUAGUUCAGGAUAUAUGAAUAGUCACAUGAGGAUCACCCAUGUCCAUUUAUAUGGGCACAUAGAAGGGAGGUAGGGAUC [Mat - Same state - Malcolm Mod - D148],apparent KD of MS2 coat protein,MS2 coat protein [2],392 nM
same,apparent KD of MS2 coat protein,MS2 coat protein [3],571 nM
GAGGACAUAGUAUAGGAUAUAUGAAUAAUUACAUGAGGAUCACCCAUGUCCAUUUAUAUGGGAACAUAGAAGGGUGGUAGUUAUC [SameState2 Malc#33],apparent KD of MS2 coat protein,MS2 coat protein [2],102 nM
same,apparent KD of MS2 coat protein,MS2 coat protein [3],202 nM
"AAACCACAUGAGGAUCACCCAUGUGUAAAAAAUACAGGAUAUGGAAACACGAAAGUGAAACCAGAAGGGUGAAAAA [77%, Mat - Mod of Eli, 30]",apparent KD of MS2 coat protein,MS2 coat protein [2],19 nM
same,apparent KD of MS2 coat protein,MS2 coat protein [3],24.3 nM
AAAAAACAUGAGGAUCACCCAUGUGCAAAAUUCGCAGGAUAUUCCUCAAUUAAAUGAAAGGAAGAAGGGUGAUAAA [Nob's Hobby 31 - Jieux - Same State 1],apparent KD of MS2 coat protein,MS2 coat protein [2],79.7 nM
same,apparent KD of MS2 coat protein,MS2 coat protein [3],429 nM
GGAUAUAUACAGGAGGAUAUGAGAACAAAGACAUGAGGAUCACCCAUGUACAAAAGGUGGAACAAUCAGAAGGUCUAAACAACAAA [Thing 1 and Thing 2],apparent KD of MS2 coat protein,MS2 coat protein [2],61 nM
same,apparent KD of MS2 coat protein,MS2 coat protein [3],49.7 nM
CGCGAACAUGAGGAUCACCCAUGUAAAUCGCAUGUAGGAUAUGGGAAACACAUUAAGAUCCCAGAAGGGCGGAAAA [Anquve],apparent KD of MS2 coat protein,MS2 coat protein [2],41.3 nM
same,apparent KD of MS2 coat protein,MS2 coat protein [3],31.2 nM
AAAAAACAUGAGGAUCACCCAUGUAAAAAAAUCGCAGGAUAUAGGGUCGCGAAAGCGACCCUAGAAGGGCGAUCCU [Louisiana 2 - Jieux - Same State 1],apparent KD of MS2 coat protein,MS2 coat protein [2],52 nM
same,apparent KD of MS2 coat protein,MS2 coat protein [3],76.1 nM
AAGAAACAUGAGGAUCACCCAUGUGAUAAUAUGGGAGGAUAUACGAAGUCGAAAGUCGAAGUAGAAGGCCUAAGAA [Garnet 41],apparent KD of MS2 coat protein,MS2 coat protein [2],49 nM
same,apparent KD of MS2 coat protein,MS2 coat protein [3],186 nM
AGGAGACAUGAGGAUCACCCAUGUGCACGUGGACGAGGAUAUGCUAGUAGAAGAUAGAAUGCAGAAGGCGUAAGAA [Mod of JR],apparent KD of MS2 coat protein,MS2 coat protein [2],48.4 nM
same,apparent KD of MS2 coat protein,MS2 coat protein [3],29.9 nM
